Test results as given in US7105484 (Genentech, dated 2006).

Target: T1, GDNFRα (full length, GPI-linked, expressed on cells) (rat, UniProt Q62997 25-430)
T1 construct: also called GDNF receptor α; recombinant GDNFRα
T1 sequence: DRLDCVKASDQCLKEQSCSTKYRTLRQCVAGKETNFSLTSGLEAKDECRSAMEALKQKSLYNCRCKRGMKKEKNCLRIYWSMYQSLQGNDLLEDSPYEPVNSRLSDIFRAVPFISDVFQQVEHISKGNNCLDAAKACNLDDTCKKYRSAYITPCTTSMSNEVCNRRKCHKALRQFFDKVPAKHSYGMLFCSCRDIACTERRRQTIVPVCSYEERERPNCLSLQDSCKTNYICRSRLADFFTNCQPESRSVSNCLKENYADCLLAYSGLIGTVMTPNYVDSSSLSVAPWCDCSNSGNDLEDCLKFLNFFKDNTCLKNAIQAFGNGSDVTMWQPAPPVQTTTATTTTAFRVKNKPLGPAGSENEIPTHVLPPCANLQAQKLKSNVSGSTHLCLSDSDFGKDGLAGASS
Experiment: competition binding of 50 pM 125I GDNF against cold GDNF on CHO cells stably expressing GDNFRα; Scatchard analysis, IGOR program
Description: Competition binding experiments further indicate that GDNF binds specifically and reversibly to GDNFRα expressing cells. […] The IGOR program was used to determine K_d.

Kd: ~0.063 nM
B1: GDNF (Glial-cell Derived Neurotrophic Factor) (ligand)
chain: SPDKQMAVLPRRERNRQAAAANPENSRGKGRRGQRGKNRGCVLTAIHLNVTDLGLGYETKEELIFRYCSGSCDAAETTYDKILKNLSRNRRLVSDKVGQACCRPIAFDDDLSFLDDNLVYHILRKHSAKRCGCI
modifications: The tracer form is 125I-iodinated, and the iodinated residues are not stated. Per our card (not shown to me), active GDNF is a disulfide-bonded homodimer; one protomer is given.
